Target: T1, σ^C4 domain of M. tuberculosis σ^C (M. tuberculosis)
T1 chain: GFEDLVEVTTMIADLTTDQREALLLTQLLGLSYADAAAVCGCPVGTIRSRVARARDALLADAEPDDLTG
Experiment: SPR

B1: σ^C2 domain of M. tuberculosis σ^C (domain or fragment)
chain: MTATASDDEAVTALALSAAKGNGRALEAFIKATQQDVWRFVAYLSDVGSADDLTQETFLRAIGAIPRFSARSSARTWLLAIARHVVADHIRHVRSRPRTTRGARPEHLIDGD
B1 gave a Kd of 1810 ± 30 nM.

— article PMC1890005 (The Journal of biological chemistry, 2006)
